The record followed here is patent publication US20230056252A1 (Gilead, published 2023).

Assay [1] concerns the target T1, CD3 expressed on cell-surface of primary human T cells (human, UniProt P07766 23-207; P04234 22-171).
T1 construct: also called cell-surface CD3; human CD3
Briefly: flow cytometry on PBMCs, % anti-huIgG+ CD8+ cells, donor hu 921.
Protocol: (§1) Briefly, PBMCs from healthy human donors and healthy rhesus or cynomolgus monkey donors were incubated with different concentrations of HIV×CD3 bispecific molecules for 1 hour at RT. […] Cells were then washed, fixed/permeabilized, and analyzed on BD LSRFortessa. The percentage of α-huIgG-APC-positive CD4+ and CD8+ T cells and the mFI of the α-huIgG-APC of CD4+ and CD8+ cells were collected, and data analyzed using GraphPad Prism.

Assay [2] addresses T2, CD3 on cynomolgus monkey T cells in PBMCs (cynomolgus monkey, UniProt Q95LI5 22-198).
T2 construct: whole, on cells; also called cynomolgus CD4+ and CD8+ T cells
The assay can be described thus: flow cytometry on PBMCs, % anti-huIgG+ CD8+ cells, donor cy 2177. Background: A flow cytometer gives signals particle by particle.
Protocol: as §1

Assay [3] deals with T1, CD3 expressed on cell-surface of …. The assay can be described thus: flow cytometry on PBMCs, % anti-huIgG+ CD8+ cells, donor hu 711.
Protocol: as §1
Assay [4] has the same target. Briefly: flow cytometry on PBMCs, % anti-huIgG+ CD4+ cells, donor hu 711.
Protocol: as §1
Assay [5] concerns the target T2, CD3 on cynomolgus monkey T cells in …. Briefly: flow cytometry on PBMCs, % anti-huIgG+ CD4+ cells, donor cy 2177.
Protocol: as §1
For assay [6], the target named is T1, CD3 expressed on cell-surface of …. Briefly: flow cytometry on PBMCs, % anti-huIgG+ CD4+ cells, donor hu 921.
Protocol: as §1
Assay [7] has the same target. The assay can be described thus: flow cytometry competition vs murine SP34-AF488 on human T cells, n = 1.
Protocol: (§2) Binding of humanized SP34 Fab variants to CD3 expressed on cell-surface of primary human T cells was evaluated in a flow cytometry-based competition assay.
In assay [8] the target is T3, biotinylated CD3 epsilon: delta heterodimer protein (Amsbio AMS.CDD-H52WO) (Homo sapiens (Human), UniProt P07766 23-126; P04234 22-105). The assay can be described thus: BLI (Octet), corresponding huSP34 Fab variant.
Protocol: (§3) The CD3 binding kinetics of the purified huSP34 Fabs were determined using OctetRed384 (Pall ForteBio, CA) biolayer interferometry (BLI). […] Streptavidin (SA) coated biosensors tips (Pall ForteBio, CA) were used to capture biotinylated CD3 epsilon: delta heterodimer and typical immobilization levels captured on the SA sensors were 1 nm which approximately translates to 300 ng/ml of captured protein. For kinetic measurements biosensors were first pre-wetted with assay buffer for 10 minutes to remove protective sucrose coating followed by the recommended regeneration conditions for standardization of the biosensor surface for the experiment. In order to load the biosensors with antigen, 300 ng/ml of biotinylated CD3 epsilon: delta heterodimer protein (Amsbio AMS.CDD-H52WO) was immobilized on the SA sensor for 900 seconds. The CD3 loaded biosensors were then blocked with 20 ug/ml biocytin (sigma) for 200 seconds and then dipped into assay buffer containing wells for 200 seconds to remove any non-specific protein or unbound CD3 heterodimer.
(§4) CD3 loaded and biocytin blocked biosensors were then transferred into fresh assay buffer for 200 seconds to collect a baseline read. Kinetic measurements for anti-CD3 Fab and bispecific antibody binding were performed by dipping the CD3-coated biosensors into wells containing multiple concentrations of Fab or Ab (0-300 nM) for 100 seconds followed by a 300 second dissociation time by transferring the biosensors into assay buffer containing wells. The CD3 loaded sensors were then regenerated for the next kinetic measurement. Biosensors were generated by removing bound Fabs or Ab from immobilized CD3 on SA biosensors. Regeneration conditions used consisted of 3 cycles of 5 seconds of dipping the biosensors in Regeneration Buffer (10 mM Glycine HCl pH 1.5) followed by Assay Buffer (10 mM sodium phosphate pH 7.4, 140 mM Sodium Chloride, 0.005% Tween20 with 0.2% BSA).
The target in assay [9] is T1, CD3 expressed on cell-surface of …. Briefly: flow cytometry competition vs murine SP34-AF488 on human T cells, n = 2.
Protocol: as §2
For assay [10] the target is unchanged. Briefly: flow cytometry competition vs murine SP34-AF488 on human T cells, average.
Protocol: as §2
Assay [11] has as its target T3, biotinylated CD3 epsilon: delta …. Briefly: BLI (Octet), huSP34 variant in Fab format.
Protocol: as §3, §4
The target is the same in assay [12]. The assay can be described thus: BLI (Octet), corresponding huSP34 Fab variant. The source holds these as a separate data set. For orientation: Biolayer interferometry detects binding as a change in optical thickness at a sensor tip.
Protocol: as §3
CD3 loaded and biocytin blocked biosensors were then transferred into fresh assay buffer for 200 seconds to collect a baseline read. […]
In assay [13] the target is T1, CD3 expressed on cell-surface of …. The assay can be described thus: flow cytometry competition vs murine SP34-AF488 on human T cells, n = 2. The source holds these as a separate data set.
Protocol: as §2
(§5) A second round of huSP34 Fab variants were characterized using the same flow cytometry-based competition assay as described above.
For assay [14] the target is unchanged. Briefly: flow cytometry competition vs murine SP34-AF488 on human T cells, average. The source holds these as a separate data set.
Protocol: as §2, §5
The target is the same in assay [15]. Briefly: flow cytometry competition vs murine SP34-AF488 on human T cells, n = 1. This is another data set of the same source.
Protocol: as §2, §5
Assay [16] concerns the target T4, MabSelect SuRe (engineered Protein A).
T4 construct: also called MabSelect SuRe column
Briefly: 500 ml Expi293 expression, MabSelect SuRe capture and cation exchange; purified homodimer yield; parental reference.
Protocol: 500 ml of Expi293 cells were transfected with 0.5 mg DNA encoding selected huSP34 scFv-Fc Protein A knockout variants according to manufacturer's protocol. Four days post transfection, the cell-free clarified supernatant was collected and loaded to a MabSelect™ SuRe™ (Cytiva Life Sciences) column. Afterwards the column was washed with a low salt buffer of 25 mM Tris HCl pH 7.5, 25 mM NaCl for 10 column volumes (CV), then high salt wash of 25 mM Tris HCl pH 7.5, 500 mM NaCl for 5CV to remove non-specific binding, and finally washed with a low salt wash of 25 mM Tris HCl pH 7.5, 25 mM NaCl for 10CV. To elute the antibody, an isocratic elution step of 100 mM sodium acetate pH 3.7 was performed. The eluted pool was neutralized to pH 6.0 with 1 M Tris HCl pH 9.0, and subjected to a cation ion purification, HiTrap SP HP (Cytiva Life Sciences) to further remove impurities. The cation captured protein was washed with 10 mM sodium phosphate pH 7.0 for 10CV, then eluted in 0-30% gradient of 10 mM sodium phosphate pH 7.0, 1M NaCl for 50CV to separate the desired two targeting arm antibody (heterodimer) from the one targeted arm antibody (homodimer). […] Concentration of the formulated protein was measured by A280. Purity was assessed as percent monodispersed by analytical size-exclusion chromatography. Identity of the bispecific antibody was determined by Mass Spec (MS).

T2 sequence (Q95LI5 22-198): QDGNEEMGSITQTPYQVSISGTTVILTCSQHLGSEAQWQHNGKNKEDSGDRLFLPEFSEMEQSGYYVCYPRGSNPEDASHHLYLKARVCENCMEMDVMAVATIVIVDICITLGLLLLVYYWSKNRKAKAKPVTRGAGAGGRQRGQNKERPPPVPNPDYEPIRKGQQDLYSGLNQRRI

B1: hCD4 D1.22 Fc AAS + W + YTE/huSP34.39.13 AAS + SAV + R (bispecific antibody, human IgG1, lambda, L234A L235A)
chain: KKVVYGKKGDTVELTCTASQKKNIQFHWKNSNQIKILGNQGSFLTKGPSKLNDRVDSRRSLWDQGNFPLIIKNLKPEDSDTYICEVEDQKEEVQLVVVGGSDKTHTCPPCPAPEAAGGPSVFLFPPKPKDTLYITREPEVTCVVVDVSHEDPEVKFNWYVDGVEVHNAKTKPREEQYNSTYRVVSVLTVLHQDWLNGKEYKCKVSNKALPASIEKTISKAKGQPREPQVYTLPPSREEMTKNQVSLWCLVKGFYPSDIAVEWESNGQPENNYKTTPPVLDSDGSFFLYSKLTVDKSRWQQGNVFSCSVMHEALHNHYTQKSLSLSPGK
heavy: EVQLVESGGGLVQPGGSLRLSCAASGFTFNTYAMNWVRQAPGKGLEWVGRIRSKYNNYATYYADSVKSRFTISRDDSKNSLYLEMNSLRTEDTAVYYCVRHGNFGHSYVSWFAYWGQGTLVTVSSASTKGPSVFPLAPSSKSTSGGTAALGCLVKDYFPEPVTVSWNSGALTSGVHTFPAVLQSSGLYSLSSVVTVPSSSLGTQTYICNVNHKPSNTKVDKKVEPKSCDKTHTCPPCPAPEAAGGPSVFLFPPKPKDTLMISRTPEVTCVVVDVSHEDPEVKFNWYVDGVEVHNAKTKPREEQYNSTYRVVSVLTVLHQDWLNGKEYKCKVSNKALPASIEKTISKAKGQPREPQVYTLPPSREEMTKNQVSLSCAVKGFYPSDIAVEWESNGQPENNYKTTPPVLDSDGSFFLVSKLTVDKSRWQQGNVFSCSVMHEALHNRYTQKSLSLSPGK
light: QAVVTQEPSLTVSPGGTVTLTCGSSTGAVTTGHYANWVQQKPGQAPRGLIGGTSNRAPGVPARFSGSLLGGKAALTISGAQPEDEAEYYCALWYSNRWVFGGGTKLTVLGQPKAAPSVTLFPPSSEELQANKATLVCLISDFYPGAVTVAWKADSSPVKAGVETTTPSKQSNNKYAASSYLSLTPEQWKSHRSYSCQVTHEGSTVEKTVAPTECS
notes: also called 180; CD4 x huSP34 bispecific 180
As a reminder, the EC50 is the midpoint of the concentration-response curve. As to B1, the EC50 in [1] came to 0.08 µg/mL; in assay [2], 1.09 µg/mL; in assay [3], 1.1 µg/mL; in assay [4] it was 0.54 µg/mL; in assay [5], 0.5 µg/mL; in assay [6], 0.09 µg/mL.

B2: huSP34.3.4 Fab-HF (Fab, V domains shown)
VH: EVQLVESGGGLVQPGGSLRLSCAASGFTFNTYAMNWVRQAPGKGLEWVGRIRSKYNNYATYYADSVKGRFTISRDDSKNSLYLQMNSLRTEDTAVYYCVRHGNFGHSYVSWFAYWGQGTLVTVSS
VL: QAVVTQEPSLTVSPGGTVTLTCGSSTGAVTTSHYANWVQQKPGQAPRGLIGGTSKRAPWTPARFSGSLLGGKAALTLSGAQPEDEAEYYCALWYSALWVFGGGTKLTVL
Broadly, the IC50 is the concentration that gives 50% inhibition. By Kd is commonly meant the free concentration of one partner at which half of the binding sites on the other are occupied at equilibrium, for simple one-to-one binding. On to B2, for which the IC50 in assay [7] was above 20 µg/mL; in [9], 17.3 µg/mL; in assay [10], 17.3 µg/mL. For the same molecule, the Kd in assay [8] and in [11] was 86 nM in each case.

B3: huSP34.13.8 Fab-HF (Fab, V domains shown)
VH: EVQLVESGGGLVQPGGSLRLSCAASGFTFSTYAMNWVRQAPGKGLEWVGRIRSKYNNYATYYAASVKGRFTISRDDSKNTLYLQMNSLRTEDTAVYYCVRHGNFGHSYVSWFAYWGQGTLVTVSS
VL: QAVVTQEPSLTVSPGGTVTLTCGSSTGAVTTGHYANWVQQKPGQAPRGLIGGTNKRAPGVPARFSGSLLGGKAALTISGAQPEDEAEYYCALWYSNRWVFGGGTKLTVL
With B3, the dissociation constant (Kd) in assay [12] is 2.49 nM. Further, the results for the IC50 in assay [13], in [14] and in assay [15] were 0.14 µg/mL, 0.25 µg/mL and 0.36 µg/mL, respectively.

B4: huSP34.4.2 Fab-HF (Fab, V domains shown)
VH: EVQLVESGGGLVQPGGSLRLSCAASGFTFSTYAMNWVRQAPGKGLEWVGRIRSKYNNYATYYAASVKGRFTISRDDSKNSLYLQMNSLRTEDTAVYYCVRHGNFGHSYVSWFAVWGQGTLVTVSS
VL: QAVVTQEPSLTVSPGGTVTLTCGSSTGAVTTSNYANWVQQKPGQAPRGLIGGTSNRAPWTPARFSGSLLGGKAALTLSGAQPEDEAEYYCALWYSNLWVFGGGTKLTVL
Take B4: the half-maximal inhibitory concentration (IC50) in assay [7] and in assay [9] was above 20 µg/mL each time. Moreover, in assay [12], binding was characterised by a dissociation constant (Kd) of 45.3 nM.

B5: huSP34.13.10 Fab-HF (Fab, V domains shown)
VH: EVQLVESGGGLVQPGGSLRLSCAASGFTFSTYAMNWVRQAPGKGLEWVGRIRSKYNNYATYYAASVKGRFTISRDDSKNTLYLQMNSLRTEDTAVYYCVRHGNFGHSYVSWFAYWGQGTLVTVSS
VL: QAVVTQPPSLTVSPGGTVTLTCGSSTGAVTTGHYANWVQQKPGQAPRGLIGGTNKRAPGVPARFSGSLSGGKAALTISGAQPEDEAEYYCALWYSNRWVFGGGTKLTVL
In the case of B5, the Kd in [8] and in assay [11] was 1.8 nM throughout. Moreover, the 50% inhibitory concentration (IC50) in assay [13] is 0.16 µg/mL; in [14], 0.25 µg/mL; in assay [15] it was 0.35 µg/mL.

B6: huSP34.3.6 Fab-HF (Fab, V domains shown)
VH: EVQLVESGGGLVQPGGSLRLSCAASGFTFNTYAMNWVRQAPGKGLEWVGRIRSKYNNYATYYADSVKGRFTISRDDSKNSLYLQMNSLRTEDTAVYYCVRHGNFGHSYVSWFAYWGQGTLVTVSS
VL: QAVVTQPPSLTVSPGGTVTLTCGSSTGAVTTGHYANWVQQKPGQAPRGLIGGTSNRAPGVPARFSGSLSGGKAALTISGAQPEDEAEYYCALWYSARWVFGGGTKLTVL
In the case of B6, the results for the IC50 in [7], in assay [9] and in assay [10] were 8.48 µg/mL, 1.03 µg/mL and 4.75 µg/mL, respectively. The dissociation constant Kd in assay [8] and in assay [11] was 19 nM each time.

B7: huSP34.13.8 scFv AAS + SAV + R (Fc fusion)
chain: EVQLVESGGGLVQPGGSLRLSCAASGFTFSTYAMNWVRQAPGKGLEWVGRIRSKYNNYATYYAASVKGRFTISRDDSKNTLYLQMNSLRTEDTAVYYCVRHGNFGHSYVSWFAYWGQGTLVTVSSGGGGSGGGGSGGGGSGGGGSQAVVTQEPSLTVSPGGTVTLTCGSSTGAVTTGHYANWVQQKPGQAPRGLIGGTNKRAPGVPARFSGSLLGGKAALTISGAQPEDEAEYYCALWYSNRWVFGGGTKLTVLEPKSSDKTHTCPPCPAPEAAGGPSVFLFPPKPKDTLMISRTPEVTCVVVDVSHEDPEVKFNWYVDGVEVHNAKTKPREEQYNSTYRVVSVLTVLHQDWLNGKEYKCKVSNKALPASIEKTISKAKGQPREPQVYTLPPSREEMTKNQVSLSCAVKGFYPSDIAVEWESNGQPENNYKTTPPVLDSDGSFFLVSKLTVDKSRWQQGNVFSCSVMHEALHNRYTQKSLSLSPGK
notes: also called huSP34.13.8scFv-Fc; parent
Regarding B7, the “scFv-Fc Homodimer Yield Relative to WT (e.g. Protein A binding)” value in assay [16] turned out to be 100%.
